Data from article PMC5382271, “The conserved protein Seb1 drives transcription termination by binding RNA polymerase II and nascent RNA” (Nature Communications, 2017).
Changes are numbered by the printed parent chain. In names and notes the source's numbering stands. Where no end group is shown, it is not given here. FAM = 5'-fluorescein amidite

B1: FAM-AUUAGUAAAA RNA (ssRNA)
RNA: AUUAGUAAAA
B2: Seb1-CID(1-152), Q9UTE3 K121E (protein)
chain: MSGIAEFDGILDSLEHSKTGISGSKILKLTNLSMENVSENAQFVASVYKYAKRAPVTHKLGALYILDSIVRSFQDGAKKNNESFENPVDASFSGGWCKAAEITDSLVADAIQHAPSAHLPEILKLCDIWEKASTFPPEKLESLRSKLKDAMA
B3: Seb1-CID(1-152), Q9UTE3 S22D; K25E; K124E (protein)
chain: B2 chain with S22D, K25E, E121K, K124E
B4: Seb1-CID(1-152) (domain or fragment)
chain: B2 chain with E121K
B5: Seb1-CID(1-152), Q9UTE3 S22D; K25E (protein)
chain: B2 chain with S22D, K25E, E121K
B6: Seb1-CID(1-152), Q9UTE3 Y64K (protein)
chain: B2 chain with Y64K, E121K
B7: Seb1-CID(1-152), Q9UTE3 K124E (protein)
chain: B2 chain with E121K, K124E
B8: FAM-tagged two-repeat non-phosphorylated CTD peptide (peptide)
chain: {FAM}-YSPTSPSYSPTSPS

Columns and labels:
SUMO-RRM WT = biological target: T1, SUMO-RRM WT (Schizosaccharomyces pombe, UniProt Q9UTE3 388-540); assay: fluorescence anisotropy; 25 mM Tris-HCl pH 8.0, 100 mM NaCl, 2 mM MgCl2, 1 mM DTT, 16.7% glycerol, 0.1% IGEPAL, 0.1 mg/ml tRNA, 2.5% RNasin, 25 C, 40 nM FAM-RNA; details: protein: recombinant; tags: N-terminal His6-SUMO; single strand
T1 sequence: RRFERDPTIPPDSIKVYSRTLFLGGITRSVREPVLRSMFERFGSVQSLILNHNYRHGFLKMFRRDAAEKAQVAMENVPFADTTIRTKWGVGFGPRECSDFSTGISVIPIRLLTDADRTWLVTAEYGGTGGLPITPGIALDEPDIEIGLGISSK

SUMO-RRM F487A = biological target: T2, SUMO-RRM F487A (Schizosaccharomyces pombe, UniProt Q9UTE3 388-540, F487A); assay: as above; details: protein: recombinant; tags: N-terminal His6-SUMO; single strand
T2 sequence: T1 sequence with F100A

SUMO-RRM R504E = biological target: T3, SUMO-RRM R504E (Schizosaccharomyces pombe, UniProt Q9UTE3 388-540, R504E); assay: as above; details: protein: recombinant; tags: N-terminal His6-SUMO; single strand
T3 sequence: T1 sequence with R117E

SUMO-RRM R392E = biological target: T4, SUMO-RRM R392E (Schizosaccharomyces pombe, UniProt Q9UTE3 388-540, R392E); assay: as above; details: protein: recombinant; tags: N-terminal His6-SUMO; single strand
T4 sequence: T1 sequence with R5E

SUMO-RRM F449A = biological target: T5, SUMO-RRM F449A (Schizosaccharomyces pombe, UniProt Q9UTE3 388-540, F449A); assay: as above; details: protein: recombinant; tags: N-terminal His6-SUMO; single strand
T5 sequence: T1 sequence with F62A

SUMO-RRM R428E = biological target: T6, SUMO-RRM R428E (Schizosaccharomyces pombe, UniProt Q9UTE3 388-540, R428E); assay: as above; details: protein: recombinant; tags: N-terminal His6-SUMO; single strand
T6 sequence: T1 sequence with R41E

SUMO-RRM K402A = biological target: T7, SUMO-RRM K402A (Schizosaccharomyces pombe, UniProt Q9UTE3 388-540, K402A); assay: as above; details: protein: recombinant; tags: N-terminal His6-SUMO; single strand
T7 sequence: T1 sequence with K15A

[1] = biological target: T8, Seb1-RRM388-540 (tag cleaved) (Schizosaccharomyces pombe, UniProt Q9UTE3 388-540); assay: as above; details: protein: recombinant; tags: His6-SUMO removed with 3C protease; single strand
T8 sequence: T1 sequence

SUMO-RRM R450A = biological target: T9, SUMO-RRM R450A (Schizosaccharomyces pombe, UniProt Q9UTE3 388-540, R450A); assay: as above; details: protein: recombinant; tags: N-terminal His6-SUMO; single strand
T9 sequence: T1 sequence with R63A

SUMO-RRM S492A = biological target: T10, SUMO-RRM S492A (Schizosaccharomyces pombe, UniProt Q9UTE3 388-540, S492A); assay: fluorescence anisotropy; text: mild effect on binding; 25 mM Tris-HCl pH 8.0, 100 mM NaCl, 2 mM MgCl2, 1 mM DTT, 16.7% glycerol, 0.1% IGEPAL, 0.1 mg/ml tRNA, 2.5% RNasin, 25 C, 40 nM FAM-RNA; details: protein: recombinant; tags: N-terminal His6-SUMO; single strand
T10 sequence: T1 sequence with S105A

SUMO-RRM R472E = biological target: T11, SUMO-RRM R472E (Schizosaccharomyces pombe, UniProt Q9UTE3 388-540, R472E); assay: fluorescence anisotropy; text: completely abolishes RNA binding; fitted Kd error exceeds value; 25 mM Tris-HCl pH 8.0, 100 mM NaCl, 2 mM MgCl2, 1 mM DTT, 16.7% glycerol, 0.1% IGEPAL, 0.1 mg/ml tRNA, 2.5% RNasin, 25 C, 40 nM FAM-RNA; details: protein: recombinant; tags: N-terminal His6-SUMO; single strand
T11 sequence: T1 sequence with R85E

[2] = biological target: T12, FAM-tagged two-repeat S2-phosphorylated CTD peptide; assay: fluorescence anisotropy (FA); details: chain shown with the change; read at the highest titration point, Seb1-CID 500 µM; parent: est. 110; read off a plot
T12 chain: YSPTSPSYSPTSPS

[3] = biological target: T13, FAM-tagged two-repeat S5-phosphorylated CTD peptide; assay: fluorescence anisotropy (FA); details: chain shown with the change; read at the highest titration point, Seb1-CID 500 µM; parent: est. 77; read off a plot
T13 chain: YSPTSPSYSPTSPS

[4] = biological target: T14, FAM-tagged two-repeat non-phosphorylated CTD peptide; assay: fluorescence anisotropy (FA); details: chain shown with the change; read at the highest titration point, Seb1-CID 500 µM; parent: est. 44; read off a plot
T14 chain: YSPTSPSYSPTSPS

[5] = biological target: FAM-tagged two-repeat S2-phosphorylated CTD peptide; assay: fluorescence polarisation; fluorescence anisotropy; Seb1-CID(1-152) titrated against 75 nM N-terminally FAM-tagged two-repeat CTD peptide; 25 mM HEPES pH 7.3, 200 mM NaCl, 1 mM EDTA; 25 °C
[6] = biological target: FAM-tagged two-repeat S5-phosphorylated CTD peptide; assay: as above
[7] = biological target: FAM-tagged two-repeat S7-phosphorylated CTD peptide; assay: as above
Seb1-CID(1-152) = biological target: T15, Seb1-CID(1-152) (S. pombe, UniProt Q9UTE3 1-152); assay: as above; details: both partners purified
T15 construct: The full-length parent construct in pET41a(+) has a C-terminal His8 tag; also called CID WT; source: E. coli Rosetta, purified (Ni-NTA, size-exclusion chromatography)
T15 sequence (looked up): B2 chain with E121K

Row | Binder | response [2] | response [3] | response [4] | further results
1 | B1 |  |  |  | Kd (SUMO-RRM WT): 1.72 ± 0.06 µM; Kd (SUMO-RRM F487A): 25.6 ± 15.7 µM; Kd (SUMO-RRM R504E): 2.37 ± 0.17 µM; Kd (SUMO-RRM R392E): 3.33 ± 0.53 µM; Kd (SUMO-RRM F449A): 1.99 ± 0.19 µM; Kd (SUMO-RRM R428E): 2.87 ± 0.85 µM; Kd (SUMO-RRM K402A): 2.49 ± 0.33 µM; Kd [1]: 1.84 ± 0.63 µM; Kd (SUMO-RRM R450A): 1.91 ± 0.71 µM; Kd (SUMO-RRM S492A): 4.2 ± 0.56 µM; Kd (SUMO-RRM R472E): 17.8 ± 27.5 µM
2 | B2 | 47 | 47 | 34 | 
3 | B3 | 22 | 27 | 33 | 
4 | B4 |  |  |  | Kd [5]: 23.4 µM; Kd [6]: 83.7 µM; Kd [7]: 242 µM
5 | B5 | 72 | 46 | 28 | 
6 | B6 | 65 | 40 | 20 | 
7 | B7 | 59 | 58 | 56 | 
8 | B8 |  |  |  | Kd (Seb1-CID(1-152)): > 1000 µM
